Reference: patent publication US20240166738A1 (Alector, published 2024)

Key:
[1] = molecular target: human TMEM106B (human, UniProt Q9NUM4 2-274); assay: cell-based or functional assay; also: test concentration or dose not given here
[2] = molecular target: T1, GST-TMEM106B (truncated, comprising amino acids 122-210 of SEQ ID NO:1) (human, UniProt Q9NUM4 122-210); assay: pre-mix epitope binning, antibody immobilized on chip array
T1 construct: GST written first by the name only; also called truncated GST-TMEM106B fusion protein; GST-TMEM106B polypeptide fusion; not shown: GST fusion partner

Row | Binder | % Protection from CPE [1] [%] | binding result [2]
1 | TM-75 (antibody, V domains shown, mouse hybridoma mAb) VH: EVQLQQSGPELVKPGASVKMSCKASGYTFTSYVMHWVKQKPGQGLEWIGYINPYNDGTKYNEKFKGKATLTSDKSSSTAYMELSSLTSEDSAVYYCARGGWFPYAMDYWGQGTTVTVSS VL: not shown | 5.1 | no binding (tested: 55 nM antigen (2 ug/mL))
2 | TM-14 (antibody, V domains shown, mouse hybridoma mAb) VH: QVQLQQSGPELVRPGTSVKVSCKASGYAFTNYLIEWVKQRPGQGLEWIGVINPGGGNTDYSEKFKDKATLTADKSSNTAYIQLSSLTSEDSAVYFCARSPYSSYVGYAVDYWGQGTSVTVSS VL: DIQMTQSPSSLSASLGERVSLTCRASQDIGSNLNWLQQEPDGTIKRLIYATSSLDSGVPKRFSGSRSGSDYSLTISSLESEDFVVYYCLQYASSPRTFGGGTRLEIK | 4 | no binding (tested: 55 nM antigen (2 ug/mL))
3 | TM-6 (antibody, V domains shown, mouse hybridoma mAb) VH: QVQLQQSGAELVKPGASVKLSCKASGYTFTEYTIHWVKQRSGQGLEWIGWFYPGSTYIDYNEKFKDKATLTADKSSSTVYLELSRLTSEDSAVYFCARHEEDYSNWFPFWGQGTLVTVSA VL: DIQMSQSSSYLSVSLGGRVTITCKASDHINNWLAWYQQKPGNAPRLLISGATSLETGVPSRFSGSGSGKDYTLSITSLQTEDVATYYCQQYWSSPYTFGGGTKLEIK | 4.4 | no binding (tested: 55 nM antigen (2 ug/mL))
4 | TM-69 (antibody, V domains shown, mouse hybridoma mAb) VH: QVQLKESGPDLVQPSQTLSLTCTVSGFSFTSYGVHWVRQPPGKGLEWVGIMGWDDKKYYNSALKSRLSISRDTSKNQVFLKLSSLQTEDTAMYYCTREAGPYGMDYWGQGTSVTVSS VL: DVVMTQTPLSLPVSLGDQASISCRSSQSLVHSNGNTYLHWYLQKPGQSPKLLIYKVSNRFSGVPDRFSGSGSGTDFTLKISRVEAEDLGVYFCSQNTHVPLTFGAGTKLELK | 4.3 | no binding (tested: 55 nM antigen (2 ug/mL))
5 | TM-65 (antibody, V domains shown, mouse hybridoma mAb) VH: QVQLQQPGAEFVKPGASVRLSCKTSGYTFTSSWMHWVKQRPGQGLEWIGEINPKNGGTNYNEKFKTKATLTVDKSSNTAYMQLSSLTSEDSAVYYCTIPTWFTYWGQGTLVTVSS VL: DIQMNQSPSSLSASLGDTITITCRASQNINIWLSWYQQKPGNVPKLLIYKASNLHTGVPSRFSGSGSGTGFTLTISSLQPEDIATYYCLQGQSYPYTFGGGTKLGIK | 4 | no binding (tested: 55 nM antigen (2 ug/mL))
6 | TM-8 (antibody, V domains shown, mouse hybridoma mAb) VH: QIQLVQSGPELKKPGETVKISCKASGYTFTDYPMHWVKQAPGKGFKWMGVIYTDTGEPKYAEVFKGRFAFSLETSASTAYLQINNLKNEDTATYFCVRRLAYWGQGTLVTVSA VL: DIKMTQSPSSMYASLGERVTITCKASQDINSYLSWFQQKPGKSPKTLIFRANRLVDGVPSRFSGSGSGQDYSLTISSLEYEDMGIYYCLQYDEFPLTFGAGTKLEMK | 3.8 | no binding (tested: 55 nM antigen (2 ug/mL))
7 | TM-85 (antibody, V domains shown, mouse hybridoma mAb) VH: QVQLQQPGAELVRAGTSVKLSCKASGYTFIGYWMHWVKQRPGRGLEWIGRIDPYSGDTRYNEKFKNKATLTVDKPSSTAYMQLSSLTSEDSAVYYCARYGLGHAMDYWGQGTSVTVSS VL: DIAMSQSQKFMSTSVGDRVSVTCKASQNVGTNVAWYQQKPGQSPKALIYSASYRYSGVPDRFTGSGSGTDFTLTISNVQSEDLAEYFCQQYNSYPLTFGAGTKLEMK | 5.2 | no binding (tested: 55 nM antigen (2 ug/mL))
8 | TM-2 (antibody, V domains shown, mouse hybridoma mAb) VH: HIQLVQSGPELKKPGETVKISCKASGYTFTEYPMHWVKQAPGKGFRWMGMIYTNTGEPTYAAEFKGRFAFSLETSASTGYLQINNLKNEDSATYFCVTAGYWGQGTLVTVSA VL: QIVLTQSPAILSASPGEKVTMTCRASSSVSYIHWFLQKPGSSPKPWIYATSNLASGVPFRFIGSGSGTSYSLTISGVEAEDSATYYCQQWSSNPSTFGAGTKLELK | 4.3 | no binding (tested: 55 nM antigen (2 ug/mL))
9 | TM-52 (antibody, V domains shown, mouse hybridoma mAb) VH: QVQLQQPGAELVKPGASVKLSCKASGYTFTNYWMHWVKQRPGQGLDWIGNIDPSDSETHYNQKFKDKATLTVDKVSSTAYMQLSSLTSEDSAVYYCARRGYYGRSPFAYWGQGTLVTVSA VL: ENVLTQSPAIMSASPGEKVTMTCSASSSVSYMHWYQQKSNTSPKLWIYDTSKLASGVPGRFSGSGSGNSYSLTISSAEAEDVATYYCFQGSGYPLTFGAGTKLELK | 3.6 | no binding (tested: 55 nM antigen (2 ug/mL))
10 | TM-33 (antibody, V domains shown, mouse hybridoma mAb) VH: EFQLQQSGPELVKPGASVKISCKASGYSFTDYNMNWVKQSNGKSLEWIGVINPNYGTTSYNQKFKGKATLTVDQSSSTAYMQLNSLTSEDSAVYYCASSYWGQGTLVTVSA VL: DIVMTQSQKFMSTTVGDRVSITCKASQNVGTAVAWYQQKPGQSPKLLIYSASNRYTGVPDRFTGSGSGTDFTLTISNMQSEDLADYFCQQYSSYPYTFGGGTKLEIK | 4.4 | no binding (tested: 55 nM antigen (2 ug/mL))
11 | TM-71 (antibody, V domains shown, mouse hybridoma mAb) VH: EVQLVESGGALVKPGGSLKLSCAASGFTFSNYAMSWVRQTPEKRLEWVATIGYGGSYSYYPDSVKGRFTISRDNAKNTLYLQMSSLRSEDTALYYCARQDSNYEGVWFAYWGQGTLVTVSS VL: DIVMTQAAPSVPVTPGESVSISCRSSKSLLHTNGNTYLFWFIQRPGQSPHLLIYRKSNLASGVPDRFSGSGSGTAFTLRISRVEAEDVGVYYCMQHLEYPFTFGSGTKLEIK | 3.2 | no binding (tested: 55 nM antigen (2 ug/mL))
12 | TM-81 (antibody, V domains shown, mouse hybridoma mAb) VH: QVQLQQSGAELVKPGASVKLSCKASGYTFTSYWMHWVKQRPGQGLEWIGNIDPSDSEIHYNQKFKDKATLTVDKSSSTAYIQLSSLTSEDSAVYYCARSPAGQILDYWGQGTTVTVSS VL: not shown | 4.6 | no binding (tested: 55 nM antigen (2 ug/mL))
